# Values joined by “and” are separate entries in the source; they are usually repeats but may differ in a detail not shown here. Equal entries are not always repeated.
# Key:
# Type in all cases: cell-based, Staphylococcus aureus
# [1] = tested on: MRSA strain ATCC 33591; experiment: Broth microdilution checkerboard assay; set-up: unit not given here; settings: for MICinitial: each agent alone (initial); for MICfinal: * = Resensitization
# Description: (§1) In some embodiments, the present lysin polypeptides reduce the minimum inhibitory concentration (MIC) of an antibiotic. Any known method to assess MIC may be used. In some embodiments, a checkerboard assay is used to determine the effect of a lysin on antibiotic concentration. The checkerboard assay is based on a modification of the CLSI method for MIC determination by broth microdilution (See Clinical and Laboratory Standards Institute (CLSI), CLSI. 2015. Methods for Dilution Antimicrobial Susceptibility Tests for Bacteria That Grow Aerobically; Approved Standard-10th Edition. Clinical and Laboratory Standards Institute, Wayne, Pa., which is herein incorporated by reference in its entirety and Ceri et al. 1999. J. Clin. Microbiol. 37: 1771-1776, which is also herein incorporated by reference in its entirety).
# (§2) Checkerboards are constructed by first preparing columns of e.g., a 96-well polypropylene microtiter plate, wherein each well has the same amount of antibiotic diluted 2-fold along the horizontal axis. […] The lysin and antibiotic dilutions are then combined, so that each column has a constant amount of antibiotic and doubling dilutions of lysin, while each row has a constant amount of lysin and doubling dilutions of antibiotic. Each well thus has a unique combination of lysin and antibiotic. Bacteria are added to the drug combinations at a given concentration. […] Summation fractional inhibitory concentrations (ΣFICs) are calculated for each drug and the minimum ΣFIC value (ΣFICmin) is used to determine the effect of the lysin/antibiotic combination.
# (§3) A step-wise approach was used to evaluate PlySs2 as a resensitizing agent. First, broth microdilution checkerboard assays were used to determine fractional inhibitory concentration index (FICI) values for combinations of PlySs2 with three β-lactam antibiotics [oxacillin (OXA), nafcillin (NAF), and cefazoline (CFZ)] against nine different MRSA strains. Data from the checkerboard assays were generated to determine the interaction and potency of PlySs2 with the β-lactam antibiotics in comparison to their individual activities. This comparison is represented as the FICI value, whereby values of ≤0.5 are consistent with synergy, values of >0.5-<1 are highly-additive, values of 1-≤2 are indifferent, and values >2 are antagonistic. Representative single agent MICs are also shown, determined for each agent alone (initial) and in combinations (final). Resensitization occurs in synergistic combinations in which the β-lactam antibiotic MIC values fall below established breakpoints, e.g. a MIC value of ≤2 for β-lactam-sensitive isolates, a MIC value of ≥4 for β-lactam-resistant isolates. See Clinical and Laboratory Standards Institute (CLSI), CLSI. 2019. M100 Performance Standards for Antimicrobial Susceptibility Testing; 29th Edition. Clinical and Laboratory Standards Institute, Wayne, Pa.
# [2] = tested on: MRSA strain ATCC 43300; experiment: Broth microdilution checkerboard assay; set-up: unit not given here; settings: for MICinitial: each agent alone (initial); for MICfinal: * = Resensitization
# Description: as §1, §2, §3
# [3] = tested on: MRSA strain CAIRD 426; experiment: Broth microdilution checkerboard assay; set-up: unit not given here; settings: for MICinitial: each agent alone (initial); for MICfinal: * = Resensitization
# Description: as §1, §2, §3
# [4] = tested on: MRSA strain HPV 107; experiment: Broth microdilution checkerboard assay; set-up: unit not given here; settings: for MICinitial: each agent alone (initial); for MICfinal: * = Resensitization
# Description: as §1, §2, §3
# [5] = tested on: MRSA strain JMI 1280; experiment: Broth microdilution checkerboard assay; set-up: unit not given here; settings: for MICinitial: each agent alone (initial); for MICfinal: * = Resensitization
# Description: as §1, §2, §3
# [6] = tested on: MRSA strain JMI 227; experiment: Broth microdilution checkerboard assay; set-up: unit not given here; settings: for MICinitial: each agent alone (initial); for MICfinal: * = Resensitization
# Description: as §1, §2, §3
# [7] = tested on: MRSA strain JMI4789; experiment: Broth microdilution checkerboard assay; set-up: unit not given here; settings: for MICinitial: each agent alone (initial); for MICfinal: * = Resensitization
# Description: as §1, §2, §3
# [8] = tested on: MRSA strain MW2; experiment: Broth microdilution checkerboard assay; set-up: unit not given here; settings: for MICinitial: each agent alone (initial); for MICfinal: * = Resensitization
# Description: as §1, §2, §3
# [9] = tested on: MRSA strain NRS 11; experiment: Broth microdilution checkerboard assay; set-up: unit not given here; settings: for MICinitial: each agent alone (initial); for MICfinal: * = Resensitization
# Description: as §1, §2, §3
# [10] = tested on: MRSA isolates from valvular vegetations; experiment: MIC values of MRSA isolates recovered from valvular vegetations after PlySs2 treatment (ex vivo)
# Experimental: (§4) An ex vivo analysis was performed on tissue samples recovered after PlySs2 treatment in a standard rabbit model of MRSA infective endocarditis (IE), as disclosed in Xiong et al., Comparative efficacy of telavancin and daptomycin in experimental endocarditis due to multi-clonotype MRSA strains, J. ANTIMIC. CHEMO. (2016); 71(1):2890-94. The standard rabbit IE model was used to confirm the impact of PlySs2 treatment on oxacillin MICs. Four days after treatment with a single-dose of PlySs2 (0.18 mg/kg to 1.4 mg/kg) in the IE model, isolates were recovered from valvular vegetations and plated on TSAB (non-selective condition, Tables 3 and 4) and TSAB supplemented with PlySs2 over a range of concentrations (selective conditions, Tables 5 and 6). MIC values of the MRSA isolates were determined for both PlySs2 and oxacillin. Tables 3 and 4 below show the MICs calculated for PlySs2 and oxacillin, respectively, for valvular vegetations subject to the non-selective conditions.
# [11] = tested on: S. aureus strain MW2; experiment: MIC of parental strain
# Experimental: as §4
# [12] = tested on: MRSA MW2 mutant and control isolates from valvular vegetations; experiment: MICs of mutant and control isolates from the rabbit IE study
# Description: The PlySs2 and oxacillin MICs of each mutant and control strain are shown below in Tables 7 and 8, wherein + indicates the presence of the mutation and—indicates an absence of the mutation.
# [13] = in combination PlySs2 + OXA (final)
# [14] = in combination PlySs2 + CFZ (final)
# [15] = in combination PlySs2 + NAF (final)
# [16] = non-selective, PlySs2 0.18 mg/kg (n = 24)
# [17] = non-selective, PlySs2 0.35 mg/kg (n = 24)
# [18] = non-selective, PlySs2 0.7 mg/kg (n = 24)
# [19] = non-selective, PlySs2 1.4 mg/kg (n = 24)
# [20] = selective conditions, PlySs2 0.18 mg/kg (n = 24)
# [21] = selective conditions, PlySs2 0.35 mg/kg (n = 24)
# [22] = selective conditions, PlySs2 0.7 mg/kg (n = 24)
# [23] = selective conditions, PlySs2 1.4 mg/kg (n = 24)
molecule,measurement,setting,value
"Cc1onc(-c2ccccc2)c1C(=O)N[C@@H]1C(=O)N2[C@@H]1SC(C)(C)[C@@H]2C(=O)O [OXA, oxacillin]",MICinitial,[1],256
same,MICfinal,[1]; [13],1*
same,MICinitial,[2],8
same,MICfinal,[2]; [13],0.5*
same,MICinitial,[3],4
same,MICfinal,[3]; [13],1*
same,MICinitial,[4],8
same,MICfinal,[4]; [13],0.5*
same,MICinitial,[5],256
same,MICfinal,[5]; [13],1*
same,MICinitial,[6],16
same,MICfinal,[6]; [13],1*
same,MICinitial,[7],64
same,MICfinal,[7]; [13],2*
same,MICinitial,[8],64
same,MICfinal,[8]; [13],2*
same,MICinitial,[9],256
same,MICfinal,[9]; [13],2*
same,MIC,"[10]; Staphylococcus aureus, MRSA, read-out: Oxacillin MIC after PlySs2 exposure",< 2 µg/mL
same,Reduction in oxacillin MIC values,"[10]; isolates after PlySs2 exposure in rabbit IE, selective conditions",greater than 16 fold
same,MIC,"[11]; Staphylococcus aureus, MW2",32 µg/mL
same,MIC,"[12]; Staphylococcus aureus, Control #1 isolate",64 µg/mL
same,MIC,"[12]; Staphylococcus aureus, Control #2 isolate",32 µg/mL
same,MIC,"[12]; Staphylococcus aureus, Control #3 isolate",64 µg/mL
same,MIC,"[12]; Staphylococcus aureus, Mutant #1 (hlgCB near, mprF L291I, rlmH K159R, ΔSCCmec)",1 µg/mL
same,MIC,"[12]; Staphylococcus aureus, Mutant #2 (hlgCB near, graR I158S, rlmH K159R, ΔSCCmec)",1 µg/mL
same,Decrease in oxacillin MIC,[12]; two mutants from the valvular vegetations,32 fold
"PlySs2: bacteriophage lysin derived from Streptococcus suis, amino acid sequence SEQ ID NO: 1 (245 residues) (protein, listed as Streptococcus suis) MTTVNEALNNVRAQVGSGVSVGNGECYALASWYERMISPDATVGLGAGVGWVSGAIGDTISAKNIGSSYNWQANGWTVSTSGPFKAGQIVTLGATPGNPYGHVVIVEAVDGDRLTILEQNYGGKRYPVRNYYSAASYRQQVVHYITPPGTVAQSAPNLAGSRSYRETGTMTVTVDALNVRRAPNTSGEIVAVYKRGESFDYDTVIIDVNGYVWVSYIGGSGKRNYVATGATKDGKRFGNAWGTFK",MICinitial,[1],1
same,MICfinal,[1]; [14],0.25
same,MICfinal,[1]; [15],1.125
same,MICfinal,[1]; [13],0.25
same,MICinitial,[2],1
same,MICfinal,[2]; [14],0.125
same,MICfinal,[2]; [15],0.125
same,MICfinal,[2]; [13],0.25
same,MICinitial,[3],1
same,MICfinal,[3]; [14],0.25
same,MICfinal,[3]; [15],0.25
same,MICfinal,[3]; [13],0.25
same,MICinitial,[4],1
same,MICfinal,[4]; [14],0.125
same,MICfinal,[4]; [15],0.25
same,MICfinal,[4]; [13],0.25
same,MICinitial,[5],1
same,MICfinal,[5]; [14],0.25
same,MICfinal,[5]; [15],0.25
same,MICfinal,[5]; [13],0.25
same,MICinitial,[6],1
same,MICfinal,[6]; [14],0.25
same,MICfinal,[6]; [15],0.25
same,MICfinal,[6]; [13],0.25
same,MICinitial,[7],1
same,MICfinal,[7]; [14],0.125
same,MICfinal,[7]; [15],0.125
same,MICfinal,[7]; [13],0.25
same,MICinitial,[8],1 and 2
same,MICfinal,[8]; [14],0.125
same,MICfinal,[8]; [15],0.5
same,MICfinal,[8]; [13],0.25
same,MICinitial,[9],1
same,MICfinal,[9]; [14],0.25
same,MICfinal,[9]; [15],0.25
same,MICfinal,[9]; [13],0.25
same,PlySs2 MIC of recovered isolates,"[10]; non-selective conditions, remained stable",1 µg/mL
same,Number of isolates with Oxacillin MIC 32 μg/mL,[10]; [16],16
same,Number of isolates with PlySs2 MIC 1 μg/mL,[10]; [16],16
same,Number of isolates with Oxacillin MIC 32 μg/mL,[10]; [17],18
same,Number of isolates with Oxacillin MIC ≤2 μg/mL,[10]; [17],6
same,Number of isolates with PlySs2 MIC 0.5 μg/mL,[10]; [17],3
same,Number of isolates with PlySs2 MIC 1 μg/mL,[10]; [17],21
same,Number of isolates with Oxacillin MIC 16 μg/mL,[10]; [18],1
same,Number of isolates with Oxacillin MIC 32 μg/mL,[10]; [18],23
same,Number of isolates with PlySs2 MIC 0.5 μg/mL,[10]; [18],1
same,Number of isolates with PlySs2 MIC 1 μg/mL,[10]; [18],23
same,Number of isolates with Oxacillin MIC 32 μg/mL,[10]; [19],17
same,Number of isolates with Oxacillin MIC ≤2 μg/mL,[10]; [19],7
same,Number of isolates with PlySs2 MIC 1 μg/mL,"[10]; non-selective, rabbits given PlySs2 1.4 mg/kg (n = 24)",24
same,PlySs2 MIC increase,"[10]; selective conditions, isolates after PlySs2 treatment",≤ 2 fold
same,Number of isolates with Oxacillin MIC 32 μg/mL,[10]; [20],16
same,Number of isolates with PlySs2 MIC 1 μg/mL,[10]; [20],14
same,Number of isolates with PlySs2 MIC 2 μg/mL,[10]; [20],2
same,Number of isolates with Oxacillin MIC 32 μg/mL,[10]; [21],17
same,Number of isolates with Oxacillin MIC <2 μg/mL,[10]; [21],7
same,Number of isolates with PlySs2 MIC 1 μg/mL,[10]; [21],22
same,Number of isolates with PlySs2 MIC 2 μg/mL,[10]; [21],2
same,Number of isolates with Oxacillin MIC 32 μg/mL,[10]; [22],21
same,Number of isolates with PlySs2 MIC 1 μg/mL,[10]; [22],19
same,Number of isolates with PlySs2 MIC 2 μg/mL,[10]; [22],3
same,"Number of isolates with Oxacillin MIC between <2 and 32 μg/mL (4, 8 or 16)","[10]; selective conditions, PlySs2 0.7 mg/kg (n = 24), column not resolvable",3
same,Number of isolates with Oxacillin MIC 32 μg/mL,[10]; [23],21
same,Number of isolates with Oxacillin MIC <2 μg/mL,[10]; [23],3
same,Number of isolates with PlySs2 MIC 1 μg/mL,[10]; [23],20
same,Number of isolates with PlySs2 MIC 2 μg/mL,[10]; [23],4
same,PlySs2 MIC of recovered isolates,"[10]; selective conditions, remained largely stable",1 µg/mL
same,MIC of S. aureus strain MW2,[11],1 µg/mL
same,MIC,[12]; Control #1 isolate,(1 μg/mL)/
same,MIC,[12]; Control #2 isolate,(2 μg/mL)/
same,MIC,[12]; Control #3 isolate,(2 μg/mL)
same,MIC,"[12]; Mutant #1 (hlgCB near, mprF L291I, rlmH K159R, ΔSCCmec)",(2 μg/mL)
same,MIC,"[12]; Mutant #2 (hlgCB near, graR I158S, rlmH K159R, ΔSCCmec)",(1 μg/mL)

# From patent US20210260070A1, “LYSIN CF-301 RESENSITIZES METHICILLIN-RESISTANT STAPHYLOCOCCUS AUREUA (MRSA) TO PENICILLIN DERIVATIVES AND FIRST GENERATION CEPHALOSPORINS” (priority 2018, published 2021)
